Biological target: mycGluA2 (recombinant) (UniProt P19491)
Test: co-IP with flag antibody, myc-GluA2 blot
Settings: reference: wild type; sites Y421,Y466,Y482

flag-cortactin (recombinant) (from UniProt Q60598) Y421F/Y466F/Y482F (TYM)
binding against the reference: stronger

— publication PMC5841360
